Experimental data taken from patent publication US11905559B2, “Materials and methods for controlling gene expression” (priority 2016, dated 2024).

Experiments:
[1] = system: lac Z expression; test: β-galactosidase reporter assay (xpt-lacZ fusion); type: cell-based, B. subtilis; conditions: for lac Z expression / transcriptional control (in words): presence and absence of guanine, B. subtilis
Description: Kissing-loop mutants were analyzed to determine whether they can exert riboswitch activities by controlling transcription termination, given that the guanine binding was retained in all of them. To test this, a β-galactosidase reporter assay was performed in B.subtilis. […] The gene expression is repressed in wild-type due to the transcription termination in the presence of guanine. […] The fast kissing dynamics between the L2-L3 probably have a stabilizing effect on P1, and therefore an increase in the transcription termination is observed. […] This underscores that the L2-L3 dynamics are directly involved in the P1-helix formation, which affects the terminator hairpin downstream that ultimately results in an alteration of the riboswitch activities.
To assess if the aptamer mutants can exert a transcriptional control similar to the previously reported wild-type xpt-pbuX riboswitch, a xpt-lacZ fusion was constructed as described by Mandal et al., “Riboswitches control fundamental biochemical pathways in Bacillus subtilis and other bacteria”. Cell 113, 577-586 (2003). Briefly, nts −121 to +197 relative to the transcriptional start site of the xpt-pbuX operon from B. subtilis 1A1 (BGSC, Columbus, Ohio) was PCR amplified and cloned upstream of the lacZ reporter gene into pDG1661 vector. After confirming the cloned sequence, plasmid variants were integrated into the amyE locus of the 1A1 strain. Transformants were selected for double markers, specifically for chloramphenicol (5 μg/ml) resistance and sensitivity to spectinomycin (100 μg/ml). Selected B. subtilis colonies were subsequently grown in minimal media (25 g/L K2HPO4·3H2O, 6 g/L KH2PO4, 1 g/L sodium citrate, 0.2 g/l MgSO4·7H2O, 2 g/L Na2SO4, 50 μM FeCl3, 2 μM MnCl2, 50 μg/ml L-Tryptophan, 50 μg/ml L-Lysine, 50 μg/ml L-Methionine, 0.4 g/100 ml glucose, and 0.2 g/100 ml glutamate) at 37° C. with vigorous shaking. Purines were added at a final concentration of 0.1 mg/ml. Cells were harvested at mid-logarithmic growth phase (A600˜0.1-0.4), and resuspended in the above buffer for the reporter assay. The color development was recorded by measuring absorbance, A420 at the end of the reaction with appropriate controls. Data is represented in Miller Units calculated from the following relation:
[formula] where Δt is the total duration taken in the substrate cleavage by […], measured as absorbance, A420. The Miller Units shown in FIG. 4A represents mean±standard deviation from 3 independent experiments, wherein each independent experiment was performed in duplicate.

[2] = Force-ramp mechanical unfolding-refolding of the guanine-aptamer (optical tweezers); type: physicochemical; conditions: for Unfolding force of the aptamer / Observed nucleotides / Observed ΔXobs: +1 μM guanine, force-ramp; for Observed nucleotides / Observed ΔXobs: complete aptamer (69 nt), 18 pN
Description: A 69 nucleotide (nt) guanine-sensing aptamer (FIGS. 3 and 4A-B) from xpt-pbuX operon in B. subtilis was used for mechanical unfolding-refolding studies. In the experimental set up shown in FIGS. 2A-E, a single molecule of the guanine-aptamer RNA was clamped between two polystyrene beads through RNA-DNA handles. […] Considering the inter-nucleotide distance as 0.448 nm at 18 pN, then using a serial worm-like chain equation
The forces on the bead were recorded at an acquisition rate of 44 kHz. Data was collected from the stereo phone jacks on the ADC boards of the Tweezers instrument and sent to the host computer audio input for analysis by SignalScope program (Faber Acoustical, LLC). As shown in the plot, power spectral density is fitted with the Lorentzian fit to yield the corner frequency (fc) that was used to calculate the trap stiffness. This setup was used to perform three different mechanical reactions: force-ramp (FR), constant-force (CF) and force-jump (FJ) under a controlled force. In the force-ramp (FR) experiment, the trap was moved at 200 nm/s, which corresponded to a loading rate 7-8 pN/s. […] The force-ramp data is plotted as force vs. extension curves (FEC).
In the force-ramp experiment, the trap was moved away (pull cycle) from the micropipette at 200 nm/sec, which corresponded to a loading rate of 7-8 pN/sec. This movement of the trap exerted a tension at the ends of the tethered RNA aptamer. […] In the constant-force (CF) experiment, the RNA was held at a preset force (FIG. 6A). The loading rate in CF experiments was zero. The preset force typically fluctuated around the mean with standard deviation ±0.15 pN. The force-ramp and the CF experiments were carried out at an ambient temperature 25±0.5° C. in buffer containing 10 mM Tris-HCl, pH 7.5 at 250 mM NaCl, 3 mM MgCl2 unless mentioned otherwise.

[3] = in-line probing assay; read-out: KD for guanine; cited from earlier work
[4] = 200 nM guanine, sequential unfolding

B1: wt: 69-nucleotide full-length wild-type guanine sensing aptamer RNA sequence from xpt-pbuX operon in B. subtilis (SEQ ID NO: 1) (nucleic acid)
chain: CACUCAUAUAAUCGCGUGGAUAUGGCACGCAAGUUUCUACCGGGCACCGUAAAUGUCCGACUAUGGGUG
modifications: RNA, backbone and methylation of C not given here
- lac Z expression / transcriptional control (in words) [1]: repressed
- Force at which P1 melted [2, 4]: 5-10 pN
- Force at which P2, P3 unfolded [2, 4]: 12-15 pN
- Unfolding force of the aptamer ([2]; listed as guanine-aptamer): 18.6±1.1 pN
- Unfolding force of the aptamer ([2]; listed as isolated aptamer): ~18.0 pN
- Observed nucleotides [2]: 67.1 ± 2
- Observed ΔXobs [2]: 30.2 ± 1.0 nm
- Observed nucleotides ([2]; listed as 69 nt-aptamer): 67±2
- Observed ΔXobs ([2]; listed as guanine-aptamer): 30.2±1 nm
- Observed ΔXobs ([2]; listed as isolated aptamer): ~30 nm
- Kd [3]: ~5 nM

B2: m4: m4 mutant guanine sensing aptamer RNA (SEQ ID NO: 5); A59G/U67C in the P3 hairpin (nucleic acid)
chain: CACUCAUAUAAUCGCGUGGAUAUGGCACGCAAGUUUCUACCGGGCGCCGUAAACGUCCGACUAUGGGUG
modifications: RNA, backbone and methylation of C not given here
notes: A59G/U67C in the P3 hairpin
- Expression higher than the wild-type ([1]; in the presence of guanine): ~7 fold
- lac Z expression / transcriptional control (in words) [1]: moderately repressed

B3: m1: m1 mutant guanine sensing aptamer RNA (SEQ ID NO: 2); G37 replaced with adenine in the L2 loop (nucleic acid)
chain: CACUCAUAUAAUCGCGUGGAUAUAGCACGCAAGUUUCUACCGGGCACCGUAAAUGUCCGACUAUGGGUG
modifications: RNA, backbone and methylation of C not given here
notes: G37 replaced with adenine in the L2 loop
- lac Z expression / transcriptional control (in words) [1]: completely de-repressed

B4: m6: m6 mutant guanine sensing aptamer RNA (SEQ ID NO: 7); U67A, shorter P3 hairpin and larger L3 loop (nucleic acid)
chain: CACUCAUAUAAUCGCGUGGAUAUGGCACGCAAGUUUCUACCGGGCACCGUAAAAGUCCGACUAUGGGUG
modifications: RNA, backbone and methylation of C not given here
notes: U67A, shorter P3 hairpin and larger L3 loop
- Repression exceeding the wild-type repression ([1]; in the presence of guanine): ~3 fold
- lac Z expression / transcriptional control (in words) [1]: highly repressed

B5: m7: m7 mutant guanine sensing aptamer RNA (SEQ ID NO: 8); U25C in J1/2 (nucleic acid)
chain: CACUCAUAUAACCGCGUGGAUAUGGCACGCAAGUUUCUACCGGGCACCGUAAAUGUCCGACUAUGGGUG
modifications: RNA, backbone and methylation of C not given here
- Expression higher than the wild-type ([1]; in the presence of guanine): ~2.5 fold
